Results taken from the Human Domainome abundance scans (Beltran et al. 2025).
± gives the uncertainty stated by the source.

B1: CD2-associated protein, residues 271 to 331; numbered along this chain, Q9Y5K6 (parent)
chain: KEYCRTLFAYEGTNEDELTFKEGEIIHLISKETGEAGWWRGELNGKEGVFPDNFAVQINEL
B2: Protein piccolo, residues 1058 to 1114; numbered along this chain, Q9Y6V0 (parent)
chain: TCPLCKTELNIGSKDPPNFNTCTECKNQVCNLCGFNPTPHLTEIQEWLCLNCQTQRA

Variants of: B1
Experiment: abundance fitness (aPCA) (normalised: wild type 0, dead -1); higher = more abundant; growth selection in yeast, the domain comes from the species named
Conditions: Homo sapiens

Going from C4R to C4E, the abundance fitness falls from -0.62 ± 0.083 to -1.09 ± 0.24.

K1Q and K1V are within error of each other in abundance fitness: -0.343 ± 0.1 for the first, -0.332 ± 0.088 for the second.

First: K1T
Second: K1M
The abundance fitness of the first is lower: -0.394 ± 0.079 for the first, -0.154 ± 0.081 for the second.

Compared with K1H, K1E is higher in abundance fitness: -0.489 ± 0.32 for the first, -0.083 ± 0.083 for the second.

K1A and K1C are within error of each other in abundance fitness: -0.529 ± 0.097 for the first, -0.629 ± 0.14 for the second.

Going from K1L to K1Y, the abundance fitness falls from -0.296 ± 0.061 to -0.656 ± 0.13.

K1N and K1W are within error of each other in abundance fitness: -0.384 ± 0.098 for the first, -0.543 ± 0.11 for the second.

K1R and K1G are within error of each other in abundance fitness: -0.277 ± 0.074 for the first, -0.223 ± 0.056 for the second.

K1I and K1D are within error of each other in abundance fitness: -0.245 ± 0.12 for the first, -0.364 ± 0.088 for the second.

K1F and K1S are within error of each other in abundance fitness: -0.337 ± 0.21 for the first, -0.229 ± 0.091 for the second.

Variants of: B2
Experiment: as above
Conditions: Homo sapiens

Q53E and Q53I are within error of each other in abundance fitness: -0.074 ± 0.18 for the first, -0.25 ± 0.22 for the second.

N27T and N27H are within error of each other in abundance fitness: -0.082 ± 0.18 for the first, -0.024 ± 0.19 for the second.

N27C and N27G are within error of each other in abundance fitness: 0.169 ± 0.18 for the first, 0.138 ± 0.096 for the second.

N27W and T23K are within error of each other in abundance fitness: 0.174 ± 0.11 for the first, -0.031 ± 0.28 for the second.

T23M and T23F are within error of each other in abundance fitness: 0.062 ± 0.17 for the first, 0.288 ± 0.15 for the second.

P16E and P16K are within error of each other in abundance fitness: -0.187 ± 0.13 for the first, -0.248 ± 0.14 for the second.

First: P16F
Second: P16T
The abundance fitness of the first is higher: 0.024 ± 0.13 for the first, -0.37 ± 0.15 for the second.

Going from P16Q to N36H, the abundance fitness rises from -0.094 ± 0.16 to 0.313 ± 0.24.

Going from N36Q to C22K, the abundance fitness falls from -0.011 ± 0.15 to -0.818 ± 0.24.

Compared with C22L, C22W is lower in abundance fitness: -0.675 ± 0.11 for the first, -1.03 ± 0.21 for the second.

C52T and C52Y are within error of each other in abundance fitness: -0.842 ± 0.21 for the first, -0.841 ± 0.16 for the second.

Compared with C52G, T54N is higher in abundance fitness: -0.727 ± 0.12 for the first, 0.296 ± 0.32 for the second.

T54C and T54A are within error of each other in abundance fitness: -0.182 ± 0.24 for the first, 0.049 ± 0.12 for the second.

P17W and P17L are within error of each other in abundance fitness: -0.199 ± 0.18 for the first, -0.084 ± 0.099 for the second.

H40E and H40S are within error of each other in abundance fitness: -0.065 ± 0.14 for the first, 0.156 ± 0.094 for the second.

Going from H40Y to C30M, the abundance fitness falls from -0.13 ± 0.15 to -0.734 ± 0.14.

Going from C30S to C30L, the abundance fitness falls from -0.429 ± 0.095 to -0.971 ± 0.11.

Going from C30F to F19E, the abundance fitness rises from -0.991 ± 0.14 to -0.153 ± 0.2.

C25D and C25H are within error of each other in abundance fitness: -0.834 ± 0.18 for the first, -0.529 ± 0.16 for the second.

Going from C25R to L48A, the abundance fitness rises from -0.79 ± 0.079 to -0.051 ± 0.13.

First: L48C
Second: L48Q
The abundance fitness of the first is higher: 0.164 ± 0.15 for the first, -0.274 ± 0.19 for the second.

E24S and T42W are within error of each other in abundance fitness: -0.13 ± 0.084 for the first, -0.166 ± 0.13 for the second.

Compared with T42P, L9W is lower in abundance fitness: -0.137 ± 0.13 for the first, -0.419 ± 0.092 for the second.

L9Y and E8L are within error of each other in abundance fitness: -0.181 ± 0.14 for the first, -0.252 ± 0.071 for the second.

First: E8A
Second: E8C
The abundance fitness of the first is higher: -0.244 ± 0.077 for the first, -0.56 ± 0.098 for the second.

Going from G34D to G34M, the abundance fitness falls from -0.075 ± 0.19 to -0.643 ± 0.12.

Compared with G34F, C49R is lower in abundance fitness: -0.035 ± 0.12 for the first, -0.782 ± 0.13 for the second.

Going from C49F to P37E, the abundance fitness rises from -0.793 ± 0.24 to 0.138 ± 0.12.

Compared with P37D, P37Y is lower in abundance fitness: 0.247 ± 0.3 for the first, -0.451 ± 0.28 for the second.

Going from C5H to C5T, the abundance fitness falls from -0.142 ± 0.077 to -0.872 ± 0.082.

C5M and C5E are within error of each other in abundance fitness: -0.927 ± 0.13 for the first, -0.812 ± 0.16 for the second.

First: C5R
Second: I11S
The abundance fitness of the first is lower: -0.906 ± 0.09 for the first, -0.026 ± 0.092 for the second.

I11L and I11N are within error of each other in abundance fitness: -0.22 ± 0.088 for the first, 0.037 ± 0.18 for the second.

I11W and I11A are within error of each other in abundance fitness: -0.333 ± 0.11 for the first, -0.153 ± 0.1 for the second.

I11T and T21S are within error of each other in abundance fitness: -0.099 ± 0.15 for the first, 0.083 ± 0.11 for the second.

I44T and I44V are within error of each other in abundance fitness: -0.273 ± 0.17 for the first, -0.014 ± 0.15 for the second.

N20T and N20A are within error of each other in abundance fitness: 0.067 ± 0.12 for the first, -0.001 ± 0.1 for the second.

N20S and N20C are within error of each other in abundance fitness: -0.082 ± 0.093 for the first, -0.091 ± 0.11 for the second.

First: L32K
Second: G12K
The abundance fitness of the first is higher: 0.172 ± 0.16 for the first, -0.216 ± 0.16 for the second.

G12A and G12F are within error of each other in abundance fitness: -0.361 ± 0.095 for the first, -0.203 ± 0.21 for the second.

Compared with G12Q, G12D is higher in abundance fitness: -0.3 ± 0.18 for the first, 0.357 ± 0.17 for the second.

G12I and Q28P are within error of each other in abundance fitness: 0.154 ± 0.16 for the first, -0.099 ± 0.14 for the second.

Q28L and Q28C are within error of each other in abundance fitness: -0.078 ± 0.091 for the first, 0.018 ± 0.11 for the second.

Q28K and K6T are within error of each other in abundance fitness: -0.265 ± 0.2 for the first, -0.107 ± 0.097 for the second.

Compared with K6W, S13F is higher in abundance fitness: -0.795 ± 0.088 for the first, -0.148 ± 0.1 for the second.

Compared with S13D, F35T is higher in abundance fitness: -0.463 ± 0.16 for the first, 0.298 ± 0.14 for the second.

Compared with F35W, P39Q is higher in abundance fitness: -0.288 ± 0.11 for the first, 0.099 ± 0.13 for the second.

P39T and P39Y are within error of each other in abundance fitness: -0.005 ± 0.13 for the first, -0.131 ± 0.14 for the second.

P3Y and P3T are within error of each other in abundance fitness: -0.142 ± 0.16 for the first, -0.016 ± 0.12 for the second.

L50Q and Q45V are within error of each other in abundance fitness: 0.15 ± 0.25 for the first, 0.046 ± 0.14 for the second.

Q45L and Q45F are within error of each other in abundance fitness: -0.093 ± 0.1 for the first, -0.127 ± 0.17 for the second.

Q45N and D15V are within error of each other in abundance fitness: 0.016 ± 0.29 for the first, 0.001 ± 0.087 for the second.

D15S and E43I are within error of each other in abundance fitness: -0.051 ± 0.1 for the first, -0.301 ± 0.2 for the second.

Going from C2V to C2D, the abundance fitness rises from -1.11 ± 0.16 to -0.536 ± 0.18.

C2N and N31V are within error of each other in abundance fitness: -0.156 ± 0.18 for the first, 0.045 ± 0.1 for the second.

N31L and N31G are within error of each other in abundance fitness: 0.072 ± 0.083 for the first, 0.028 ± 0.096 for the second.

First: N10H
Second: N10V
The abundance fitness of the first is lower: -0.608 ± 0.16 for the first, -0.211 ± 0.087 for the second.

N10M and N51E are within error of each other in abundance fitness: 0.042 ± 0.099 for the first, -0.099 ± 0.21 for the second.

K26I and K26M are within error of each other in abundance fitness: 0.006 ± 0.18 for the first, 0.335 ± 0.17 for the second.

K26V and K26P are within error of each other in abundance fitness: 0.065 ± 0.097 for the first, -0.148 ± 0.14 for the second.

K26W and L41Q are within error of each other in abundance fitness: -0.022 ± 0.11 for the first, 0.007 ± 0.17 for the second.

L41I and L41D are within error of each other in abundance fitness: 0.188 ± 0.21 for the first, 0.004 ± 0.19 for the second.

L41S and L41R are within error of each other in abundance fitness: 0.033 ± 0.093 for the first, 0.2 ± 0.097 for the second.

T1E and T1W are within error of each other in abundance fitness: -0.142 ± 0.46 for the first, -0.516 ± 0.23 for the second.

First: T1I
Second: N18I
The abundance fitness of the first is higher: -0.024 ± 0.22 for the first, -0.5 ± 0.23 for the second.

N18T and N18W are within error of each other in abundance fitness: -0.089 ± 0.15 for the first, -0.346 ± 0.12 for the second.

N18H and N18P are within error of each other in abundance fitness: -0.1 ± 0.17 for the first, -0.047 ± 0.16 for the second.

W47P and W47D are within error of each other in abundance fitness: -0.039 ± 0.22 for the first, 0.006 ± 0.26 for the second.

K14A and K14E are within error of each other in abundance fitness: -0.079 ± 0.1 for the first, -0.226 ± 0.15 for the second.

L4A and L4D are within error of each other in abundance fitness: 0.087 ± 0.11 for the first, 0.17 ± 0.13 for the second.

Compared with L4Y, L4P is lower in abundance fitness: -0.088 ± 0.14 for the first, -0.693 ± 0.15 for the second.

Compared with V29K, V29Y is higher in abundance fitness: -0.326 ± 0.11 for the first, -0.082 ± 0.077 for the second.

V29N and T7L are within error of each other in abundance fitness: -0.199 ± 0.077 for the first, -0.15 ± 0.076 for the second.

E46W gave an abundance fitness of -0.401 ± 0.18.
